The values that follow are results of earlier work, collected in publication PMC13428679.

Series [1] addresses Skp1 (Dictyostelium discoideum) (UniProt P52285).

Sequence of Fbs1 (Cavia porcellus) (Q80UW2 whole entry): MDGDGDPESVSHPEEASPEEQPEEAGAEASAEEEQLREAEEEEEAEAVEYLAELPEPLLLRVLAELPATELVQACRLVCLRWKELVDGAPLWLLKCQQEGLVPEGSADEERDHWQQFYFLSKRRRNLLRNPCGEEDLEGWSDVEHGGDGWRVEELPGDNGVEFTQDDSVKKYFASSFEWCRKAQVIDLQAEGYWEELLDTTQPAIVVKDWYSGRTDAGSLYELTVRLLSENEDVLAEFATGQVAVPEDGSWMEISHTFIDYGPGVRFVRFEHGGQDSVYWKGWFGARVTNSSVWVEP

For Skp1 (from UniProt P52285), the Kd in series [1] was 2.5 µM.
Consider Skp1 (from UniProt P63208), for which the Kd with Fbs1 (Cavia porcellus) is 25 µM.
